Target: hDOP–Renilla luciferase (human, UniProt P41143 1-372)
Assay: FRET or BRET

Sequence of hDOP–Renilla luciferase (P41143 whole entry): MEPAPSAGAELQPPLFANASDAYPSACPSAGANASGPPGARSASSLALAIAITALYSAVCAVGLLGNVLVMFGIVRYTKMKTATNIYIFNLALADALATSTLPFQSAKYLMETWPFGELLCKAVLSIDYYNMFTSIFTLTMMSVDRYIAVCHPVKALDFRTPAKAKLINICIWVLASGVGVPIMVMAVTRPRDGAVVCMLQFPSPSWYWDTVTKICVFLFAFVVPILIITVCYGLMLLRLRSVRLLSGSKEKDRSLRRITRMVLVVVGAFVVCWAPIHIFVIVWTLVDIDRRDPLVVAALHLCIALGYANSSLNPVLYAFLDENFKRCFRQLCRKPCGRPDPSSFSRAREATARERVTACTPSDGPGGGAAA

BRET50: 0.34 ± 0.02 [acceptor] to [donor] ratio
B1: hCXCR2–GFP^2 (receptor)
chain: MEDFNMESDSFEDFWKGEDLSNYSYSSTLPPFLLDAAPCEPESLEINKYFVVIIYALVFLLSLLGNSLVMLVILYSRVGRSVTDVYLLNLALADLLFALTLPIWAASKVNGWIFGTFLCKVVSLLKEVNFYSGILLLACISVDRYLAIVHATRTLTQKRYLVKFICLSIWGLSLLLALPVLLFRRTVYSSNVSPACYEDMGNNTANWRMLLRILPQSFGFIVPLLIMLFCYGFTLRTLFKAHMGQKHRAMRVIFAVVLIFLLCWLPYNLVLLADTLMRTQVIQETCERRNHIDRALDATEILGILHSCLNPLIYAFIGQKFRHGLLKILAIHGLISKDSLPKDSRPSFVGSSSGHTSTTL
